{"source": "patent US8501696", "about": "(dated 2013)", "binders": {"B1": {"name": "wild type sgp130Fc (Fc fusion)", "chain": "ELLDPCGYISPESPVVQLHSNFTAVCVLKEKCMDYFHVNANYIVWKTNHFTIPKEQYTIINRTASSVTFTDIASLNIQLTCNILTFGQLEQNVYGITIISGLPPEKPKNLSCIVNEGKKMRCEWDGGRETHLETNFTLKSEWATHKFADCKAKRDTPTSCTVDYSTVYFVNIEVWVEAENALGKVTSDHINFDPVYKVKPNPPHNLSVINSEELSSILKLTWTNPSIKSVIILKYNIQYRTKDASTWSQIPPEDTASTRSSFTVQDLKPFTEYVFRIRCMKEDGKGYWSDWSEEASGITYEDRPSKAPSFWYKIDPSHTQGYRTVQLVWKTLPPFEANGKILDYEVTLTRWKSHLQNYTVNATKLTVNLTNDRYLATLTVRNLVGKSDAAVLTIPACDFQATHPVMDLKAFPKDNMLWVEWTTPRESVKKYILEWCVLSDKAPCITDWQQEDGTVHRTYLRGNLAESKCYLITVTPVYADGPGSPESIKAYLKQAPPSKGPTVRTKKVGKNEAVLEWDQLPVDVQNGFIRNYTIFYRTIIGNETAVNVDSSHTEYTLSSLTSDTLYMVRMAAYTDEGGKDGPEFTFTTPKFAQGEIE"}}, "molecular_target": "Hyper-IL-6 (designer cytokine consisting of covalently linked IL-6 and sIL-6R) (human, UniProt P08887 20-323; P05231 30-212)", "sequence (P08887 20-323, chain 1 of 2)": "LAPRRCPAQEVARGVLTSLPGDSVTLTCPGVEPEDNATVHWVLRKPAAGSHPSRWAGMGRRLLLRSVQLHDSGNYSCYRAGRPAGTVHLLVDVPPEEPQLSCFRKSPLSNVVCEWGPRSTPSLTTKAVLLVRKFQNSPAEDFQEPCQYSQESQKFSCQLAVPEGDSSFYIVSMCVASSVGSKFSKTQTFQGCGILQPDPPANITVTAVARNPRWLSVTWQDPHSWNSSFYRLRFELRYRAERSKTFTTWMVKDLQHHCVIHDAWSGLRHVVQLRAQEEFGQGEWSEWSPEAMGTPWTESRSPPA", "sequence (P05231 30-212, chain 2 of 2)": "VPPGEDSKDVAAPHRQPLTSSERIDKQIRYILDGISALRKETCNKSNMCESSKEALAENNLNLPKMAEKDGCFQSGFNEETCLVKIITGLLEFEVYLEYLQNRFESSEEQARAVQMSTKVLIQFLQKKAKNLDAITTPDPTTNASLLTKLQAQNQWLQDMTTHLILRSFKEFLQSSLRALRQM", "assay": "SPR"}
{"binder": "B1", "values": [{"measurement": "Kd", "result": 0.499, "unit": "nM"}]}
